Measurements: article PMC11200690 (Antibodies, 2024)

Biological target: T1, recombinant human HER2 ECD protein (Homo sapiens, UniProt P04626)
T1 construct: human epidermal growth factor receptor-2 (HER2, Erbb2), extracellular domain; also called HER2 antigen; Erbb2; source: bought: SinoBiological (10004-H08H)
Assay: BLI; scFv formats against HER2 ECD; set-up not told (Figure S2)
Settings: both partners purified

B1: Ab8 scFv (scFv, V domains shown)
VH: QVQLGESGGGVVRPGGSLRLSCAASGFTFSSYAMSWVRQAPGKGLEWVSAISGSGGSTYYADSVKGRFTISRENAKNSLYLQMNSLRAEDTAVYYCARRGGVWAFDIWGQGTMVTVSS
VL: DVVMTQSPLSLPVTPGEPASISCRSSQSLLHSNGINYLDWYLQKPGQSPQLLIYLGSSRASGVPDRFSGSGSGTDFTLKISRVEAEDVGVYFCMQALQTPLTFGQGTKLEIK
notes: as the VH of m1; as the VL of m1; also called scFv Ab8; ScFv of Ab8; source: HB2151 cells (pComb3x plasmid), purified (Ni-NTA); not shown: Flag, C-terminal, kept
Kd: 9 nM
